Assay results as given in publication PMC7306997.

Assays:
[1] = target: Aβ42 oligomers formed during the in vitro aggregation of Aβ42 (M1–42) (UniProt P05067); experiment: TIRF single-molecule colocalisation imaging
[2] = target: Aβ42 amyloid fibrils (UniProt P05067); experiment: microfluidic diffusional sizing

Substance: AF647-labeled DesAb-O (antibody)
- percentage of coincidence of ThT and AF647-DesAb-O signals [1]: < 45%
- Kd [2]: 1000 nM
- stoichiometry N (DesAb-O per Aβ42 monomer) [2]: 0.005
